According to patent US20230346919A1:

Target: Spike (S) protein of the SARS-CoV-2 clinical isolate, strain 2019 n-CoV/USA_WA1/2020 (SARS-CoV-2 strain 2019 n-CoV/USA_WA1/2020) (UniProt P0DTC2)
Assay: cell-based or functional assay

Row | Substance | EC50, inhibition of SARS-CoV-2 infection (FRNT, Vero E6 cells) [µg/mL] | EC50, neutralization of SARS-CoV-2 (FRNT, Vero E6 cells) [µg/mL]
1 | human ACE2-Fc (hACE2 residues 1-615, HRV-3C site, human IgG1 Fc) (from UniProt Q9BYF1 18-615) (Fc fusion) | 12.6 | 
2 | mAb S309 (antibody) |  | 0.081
